T1: Eps15IDR (Eps15's own intrinsically disordered region) (human, UniProt P42566 481-896)
T1 construct: Eps15, UniProt P42566, C-terminal intrinsically disordered region; limits 481-896 from the N-terminal residues 481-521, the overlapping stretches 481-581 to 761-896 and the primer names Eps15_481_Nde1_fw and Eps15_896_Not1_rv; in pET28-6His-GB1; 15N-labelled where it was the observed protein; source: E. coli Rosetta (DE3), purified (nickel column, TEV cleavage, SEC); not shown: 6His, N-terminal, …
T1 sequence (looked up): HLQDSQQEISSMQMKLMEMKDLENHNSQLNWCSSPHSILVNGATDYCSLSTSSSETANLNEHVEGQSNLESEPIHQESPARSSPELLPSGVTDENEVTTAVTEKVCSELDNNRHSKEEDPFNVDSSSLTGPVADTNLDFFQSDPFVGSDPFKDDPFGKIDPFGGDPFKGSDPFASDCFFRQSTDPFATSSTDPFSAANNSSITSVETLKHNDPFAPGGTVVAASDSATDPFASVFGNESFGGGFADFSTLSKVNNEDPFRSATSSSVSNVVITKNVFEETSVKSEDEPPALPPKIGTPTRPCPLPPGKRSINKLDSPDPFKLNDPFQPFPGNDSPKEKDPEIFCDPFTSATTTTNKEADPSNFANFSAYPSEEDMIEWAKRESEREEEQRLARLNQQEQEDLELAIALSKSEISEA

B1: Dab2_(320–495) (domain or fragment, UniProt P98082 320-495, looked up)
chain: KKENSSSSSTPLSNGPLNGDVDYFGQQFDQISNRTGKQEAQAGPWPFSSSQTQPAVRTQNGVSEREQNGFSVKSSPNPFVGSPPKGLSIQNGVKQDLESSVQSSPHDSIAIIPPPQSTKPGRGRRTAKSSANDLLASDIFAPPVSEPSGQASPTGQPTALQPNPLDLFKTSAPAPV
notes: gene bought from Twist Bioscience, in pET28a; 15N-labelled where it was the observed protein; The S328C mutant was used only for microscopy of droplets and is not written; also called Dab2 fragment; source: E. coli Rosetta (DE3), purified (nickel column, SEC); not shown: His-tag, C-terminal, kept
B2: Eps15 EH2 domain (domain or fragment, human, UniProt P42566 121-215, looked up)
chain: PWAVKPEDKAKYDAIFDSLSPVNGFLSGDKVKPVLLNSKLPVDILGRVWELSDIDHDGMLDRDEFAVAMFLVYCALEKEPVPMSLPPALVPPSKR
notes: Eps15, UniProt P42566, second EH domain; in pET41c; The NdeI primer puts a start methionine before P121; non-cleavable C-terminal His-tag from pET41c; 15N-labelled where it was the observed protein; source: E. coli Rosetta (DE3), purified (nickel column, SEC); not shown: His-tag, C-terminal, kept
B3: Eps15 EH123 (EH1-EH2-EH3, the full EH-domain containing region) (domain or fragment, human, UniProt P42566 1-310, looked up)
chain: MAAAAQLSLTQLSSGNPVYEKYYRQVDTGNTGRVLASDAAAFLKKSGLPDLILGKIWDLADTDGKGILNKQEFFVALRLVACAQNGLEVSLSSLNLAVPPPRFHDTSSPLLISGTSAAELPWAVKPEDKAKYDAIFDSLSPVNGFLSGDKVKPVLLNSKLPVDILGRVWELSDIDHDGMLDRDEFAVAMFLVYCALEKEPVPMSLPPALVPPSKRKTWVVSPAEKAKYDEIFLKTDKDMDGFVSGLEVREIFLKTGLPSTLLAHIWSLCDTKDCGKLSKDQFALAFHLISQKLIKGIDPPHVLTPEMIPP
notes: Eps15, UniProt P42566, the three N-terminal EH domains in row; in pET28-6His-GB1; 15N-labelled where it was the observed protein; source: E. coli Rosetta (DE3), purified (nickel column, TEV cleavage, SEC); not shown: 6His, N-terminal, cleaved; GB1, N-terminal, cleaved

Key:
Conditions in all cases: both partners purified
[1] = biological target: B3; assay: NMR titration; competition: equimolar EH123, Eps15IDR and Dab2(320-495) together, observed in turn on 15N EH123, 15N Eps15IDR and 15N Dab2(320-495); NMR buffer pH 6, 25 °C
Dab2_(320–495) = biological target: B1; assay: NMR CPMG relaxation dispersion; 100 µM 15N Dab2(320-495) with 10 µM (10%) EH2; 600 and 900 MHz; 12 residues of helixN and the NPF motif fitted globally, two-site exchange model (ChemEx); NMR buffer pH 6, 25 °C
[2] = biological target: T1, Eps15IDR (Eps15's own intrinsically …); assay: NMR titration; equimolar unlabelled Eps15IDR (200 µM) added to 200 µM 15N EH123; 1H-15N TROSY-HSQC CSPs and R1rho at 1200 MHz; NMR buffer pH 6, 25 °C

Binder: B1
- binding result [1]: binds

Binder: B2
- Kd (Dab2_(320–495)): 196 µM

Binder: B3
- binding result [2]: binds

Source: article PMC12370899, “Promiscuous and multivalent interactions between Eps15 and partner protein Dab2 generate a complex interaction network” (Nature Communications, 2025)
